Test results as given in article PMC4889046 (PLoS ONE, 2016).

Target: the molecule itself
Assay: cross-linking

B1: APOBEC4 fused to three C-terminal HA-tags (A4-HA) (natural protein, human, UniProt Q8WW27 1-367, looked up)
chain: MEPIYEEYLANHGTIVKPYYWLSFSLDCSNCPYHIRTGEEARVSLTEFCQIFGFPYGTTFPQTKHLTFYELKTSSGSLVQKGHASSCTGNYIHPESMLFEMNGYLDSAIYNNDSIRHIILYSNNSPCNEANHCCISKMYNFLITYPGITLSIYFSQLYHTEMDFPASAWNREALRSLASLWPRVVLSPISGGIWHSVLHSFISGVSGSHVFQPILTGRALADRHNAYEINAITGVKPYFTDVLLQTKRNPNTKAQEALESYPLNNAFPGQFFQMPSGQLQPNLPPDLRAPVVFVLVPLRDLPPMHMGQNPNKPRNIVRHLNMPQMSFQETKDLGRLPTGRSVEIVEITEQFASSKEADEKKKKKGKK
notes: also called A4-3xHA; pA4-HA; not shown: 3xHA, C-terminal, kept
- stoichiometry N: 2
